Measurements: publication doi:10.1101/489906 (bioRxiv, 2018)

Tests used:
NSW-2012 GII.4 P domain = molecular target: T1, NSW-2012 GII.4 P domain (Norovirus …, strain); experiment: ITC
T1 chain: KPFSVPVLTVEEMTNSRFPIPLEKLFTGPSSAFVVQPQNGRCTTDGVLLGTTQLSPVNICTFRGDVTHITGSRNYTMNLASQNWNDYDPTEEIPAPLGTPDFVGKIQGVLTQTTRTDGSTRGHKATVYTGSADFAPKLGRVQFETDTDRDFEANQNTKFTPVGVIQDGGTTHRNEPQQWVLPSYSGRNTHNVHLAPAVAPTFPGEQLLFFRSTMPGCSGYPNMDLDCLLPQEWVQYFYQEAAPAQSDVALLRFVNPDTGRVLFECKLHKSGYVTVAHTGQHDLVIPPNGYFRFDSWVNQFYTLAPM

Saga-2006 GII.4 VLPs = Saga-2006 GII.4 VLPs (Norovirus Hu/GII.4/Saga4/2006/JP …, UniProt B5BTR7, strain); experiment: ELISA
CHDC-1974 GII.4 VLPs = CHDC-1974 GII.4 VLPs (Norovirus Hu/GII.4/CHDC2094/1974/US …, UniProt D0QJ68, strain); experiment: ELISA

B1: 10E9 MAb (IgG) (antibody, V domains shown)
VH: QVQLQQSGAELMKPGASVKISCTATGYTFITYWIQWVKQRPGHGLEWIGETLPGSGSTNYNEKFKGKATFTADTSSNTAYMQLSSLTSEDSAIYYCARIGRSNDYWGQGTTLTVSS
VL: QIVLTQSPTIMSASPGEKVTMTCSASSSVDYMHWYQQKSGTSPKRWIYDTYKLASGVPARFSGSGSGTSYSLTINSMEAEDAATYYCQQWSSNPLTFGAGTKLELK
Question: With B1 as the binder, how does the Kd (NSW-2012 GII.4 P domain) read?
Answer: Its Kd is 59 nM.

Question: And the dH (NSW-2012 GII.4 P domain)?
Answer: Its dH is -4300 ± 11 cal/mol.

Question: And the “stoichiometry N” value (NSW-2012 GII.4 P domain)?
Answer: Its value is 0.98.

Question: Does B1 bind (Saga-2006 GII.4 VLPs)?
Answer: Result: binds

Question: Does B1 bind (CHDC-1974 GII.4 VLPs)?
Answer: Result: no binding
